Data: patent US20250011363A1, “OPTIMIZED SHORTENED PEPTIDE THAT BINDS TO ACETYLCHOLINE RECEPTOR, AND USE THEREOF” (SKINMED CO., LTD., priority 2021, published 2025)

Each substance was assayed against acetylcholine receptor (Homo sapiens, UniProt P02708) (assay: SPR binding affinity (RU) of optimized 5mer/6mer/7mer peptides, Examples 6-7). Conditions: 6mer-1 Top sequence; SPR; peptides tested at 10 μM.
Outline: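 600 peptides per series (5mer, 6mer-1, 6mer-2), made from high- or low-frequency amino acid combinations, are screened by SPR at 10 μM; binding is recorded in RU.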

acetylcholine receptor, sequence (P02708 21-457): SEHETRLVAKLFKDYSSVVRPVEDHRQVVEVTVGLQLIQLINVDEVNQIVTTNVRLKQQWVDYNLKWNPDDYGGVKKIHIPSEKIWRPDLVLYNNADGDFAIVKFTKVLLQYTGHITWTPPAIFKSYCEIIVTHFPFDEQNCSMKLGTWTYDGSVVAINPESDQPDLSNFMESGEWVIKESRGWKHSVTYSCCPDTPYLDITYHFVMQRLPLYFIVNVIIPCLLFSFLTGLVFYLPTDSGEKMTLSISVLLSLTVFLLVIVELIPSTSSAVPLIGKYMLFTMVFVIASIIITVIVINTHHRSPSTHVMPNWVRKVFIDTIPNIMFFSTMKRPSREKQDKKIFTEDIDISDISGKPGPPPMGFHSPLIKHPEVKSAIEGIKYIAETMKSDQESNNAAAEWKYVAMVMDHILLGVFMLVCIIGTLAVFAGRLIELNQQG

Substance	Binding affinity
6mer-1-385 (KRQVLR)	127 Ru
6mer-1-336 (KRVVTK)	154 Ru
6mer-1-324 (RRLQRR)	128 Ru
6mer-1-233 (KKWQSR)	128 Ru
6mer-1-377 (KRWITR)	148 Ru
6mer-1-388 (RRLLQR)	142 Ru
6mer-1-339 (KKSIQK)	147 Ru
6mer-1-374 (KKQFQK)	148 Ru

Same assay, conditions: 6mer-2 Top sequence; SPR; peptides tested at 10 μM

Substance	Binding affinity
6mer-2-81 (RRVSRR)	121 Ru
6mer-2-7 (KSRCRK)	126 Ru
6mer-2-102 (KVYQKK)	139 Ru
6mer-2-82 (RGVQKK)	124 Ru
6mer-2-26 (RWRRKK)	121 Ru
6mer-2-90 (KGRTKR)	133 Ru
6mer-2-133 (KRRLKK)	145 Ru
6mer-2-62 (RLVTKR)	147 Ru
6mer-2-71 (KQVYKR)	141 Ru
6mer-2-54 (KGRRRR)	124 Ru
6mer-2-121 (KRVYRK)	137 Ru
6mer-2-181 (RWQQKK)	139 Ru
6mer-2-108 (RVVYKK)	153 Ru
6mer-2-120 (RRQCRK)	146 Ru
6mer-2-187 (KRRRRK)	145 Ru

Same assay, conditions: SPR, Resonance Units; 5mer Bottom sequence (bottom combinations); peptides tested at 10 μM

Substance	Binding affinity
5mer-640 (KNPHK)	15 Ru
5mer-1056 (RCTPK)	11 Ru
5mer-772 (KYWFK)	11 Ru
5mer-949 (KMKMK)	26 Ru
5mer-941 (KNHHR)	21 Ru
5mer-800 (KEAPR)	29 Ru
5mer-929 (KYTFR)	28 Ru
5mer-1026 (RNAVR)	20 Ru
5mer-630 (RITFR)	30 Ru
5mer-1024 (KIDNK)	26 Ru
5mer-1090 (KISGK)	31 Ru
5mer-1041 (RDWFK)	27 Ru
5mer-964 (KYTDR)	22 Ru
5mer-699 (KKNER)	12 Ru
5mer-773 (RPNMR)	25 Ru

Same assay, conditions: SPR, Resonance Units; peptides tested at 10 μM; 6mer-1 Bottom sequence

Substance	Binding affinity
6mer-1-1088 (RRETHK)	38 Ru
6mer-1-1124 (KKDEIR)	21 Ru
6mer-1-1076 (RKKEPK)	43 Ru
6mer-1-1102 (KRFTKK)	35 Ru
6mer-1-1026 (RKKCER)	30 Ru
6mer-1-1018 (KKTAFK)	28 Ru
6mer-1-1042 (KKITAR)	40 Ru
6mer-1-1040 (KRIEFR)	28 Ru
6mer-1-1166 (KKEEKR)	22 Ru
6mer-1-1181 (RRMDAK)	21 Ru
6mer-1-1010 (KKPKHK)	33 Ru

Same assay, conditions: SPR, Resonance Units; peptides tested at 10 μM; 6mer-1 Bottom sequence (Table 11)

Substance	Binding affinity
6mer-1-733 (KKKMFK)	21 Ru
6mer-1-624 (KKPPAK)	30 Ru
6mer-1-633 (RKIDAK)	16 Ru
6mer-1-601 (KKEWNK)	27 Ru
6mer-1-793 (KKTPNR)	31 Ru
6mer-1-634 (KKNTMR)	12 Ru
6mer-1-605 (RKNADR)	20 Ru
6mer-1-784 (KKFTPK)	33 Ru
6mer-1-627 (RRTWWR)	29 Ru
6mer-1-789 (KRMMPK)	19 Ru
6mer-1-603 (KRPHFK)	13 Ru
6mer-1-780 (KRKCWR)	24 Ru
6mer-1-755 (RRANMR)	25 Ru

Same assay, conditions: SPR, Resonance Units; peptides tested at 10 μM; 6mer-2 Bottom sequence

Substance	Binding affinity
6mer-2-648 (RYPDRK)	23 Ru
6mer-2-634 (RYEHRK)	33 Ru
6mer-2-861 (KDTDRK)	21 Ru
6mer-2-809 (REPWRR)	18 Ru
6mer-2-942 (KTDKRK)	22 Ru
6mer-2-614 (KAWIRR)	19 Ru
6mer-2-778 (RNAPKK)	21 Ru
6mer-2-837 (REDFRR)	32 Ru
6mer-2-923 (RCCAKK)	33 Ru
6mer-2-939 (KKCARR)	22 Ru
6mer-2-812 (KPPEKR)	33 Ru
6mer-2-879 (RTMDRR)	19 Ru
6mer-2-899 (KKMVKR)	13 Ru
6mer-2-601 (KNSHKK)	25 Ru
